# Data published in paper PMC4618611, “IscR of Rhodobacter sphaeroides functions as repressor of genes for iron-sulfur metabolism and represents a new type of iron-sulfur-binding protein” (MicrobiologyOpen, 2015).
# Values joined by “and” are separate entries in the source; they are usually repeats but may differ in a detail not shown here. Identical values can stand only once.
# B1: IscR of Rhodobacter sphaeroides (His-tagged recombinant IscR) (natural protein, UniProt Q3J0R9 1-155, looked up)
# chain: MKLSTKGRYAMVALVDLALAQKSGNELVSLAEVSKRQDISLPYLEQLFVKLRRAGLVEAVRGPGGGYKLARPAESIRVSEIMEAVEETVNAMHTGAGASGGVSGSRAQSLTNRLWEGLSAHVYVFLHQTRLSDIIKNEMRPCPAVPALFRVVDED
# notes: IscR, Rhodobacter sphaeroides 2.4.1, locus RSP_0443 (KEGG), 155 amino acid residues; the coding region of iscR was amplified and cloned into pQE30; also called His-tagged IscR; RSP_0443; source: E. coli M15 (pQE30::iscR), overexpressed, purified (Ni-NTA)
# Biological target: the molecule itself
# Test: SEC; gel filtration of the purified protein on a Superdex 200 16/60 column; aerobic conditions; data not shown
protein,measurement,value
B1,stoichiometry N,2 and 4
